Measurements from PMC7483370 (Molecular cell, 2020).

Legend:
[1] = molecular target: p300, purified recombinant (baculovirus) (human, UniProt Q09472 1-2414); assay: co-IP
[2] = molecular target: T1, Androgen receptor, full-length, flag-tagged, recombinant (baculovirus) (human, UniProt P10275 1-920); assay: cryo-EM structure
T1 sequence (looked up): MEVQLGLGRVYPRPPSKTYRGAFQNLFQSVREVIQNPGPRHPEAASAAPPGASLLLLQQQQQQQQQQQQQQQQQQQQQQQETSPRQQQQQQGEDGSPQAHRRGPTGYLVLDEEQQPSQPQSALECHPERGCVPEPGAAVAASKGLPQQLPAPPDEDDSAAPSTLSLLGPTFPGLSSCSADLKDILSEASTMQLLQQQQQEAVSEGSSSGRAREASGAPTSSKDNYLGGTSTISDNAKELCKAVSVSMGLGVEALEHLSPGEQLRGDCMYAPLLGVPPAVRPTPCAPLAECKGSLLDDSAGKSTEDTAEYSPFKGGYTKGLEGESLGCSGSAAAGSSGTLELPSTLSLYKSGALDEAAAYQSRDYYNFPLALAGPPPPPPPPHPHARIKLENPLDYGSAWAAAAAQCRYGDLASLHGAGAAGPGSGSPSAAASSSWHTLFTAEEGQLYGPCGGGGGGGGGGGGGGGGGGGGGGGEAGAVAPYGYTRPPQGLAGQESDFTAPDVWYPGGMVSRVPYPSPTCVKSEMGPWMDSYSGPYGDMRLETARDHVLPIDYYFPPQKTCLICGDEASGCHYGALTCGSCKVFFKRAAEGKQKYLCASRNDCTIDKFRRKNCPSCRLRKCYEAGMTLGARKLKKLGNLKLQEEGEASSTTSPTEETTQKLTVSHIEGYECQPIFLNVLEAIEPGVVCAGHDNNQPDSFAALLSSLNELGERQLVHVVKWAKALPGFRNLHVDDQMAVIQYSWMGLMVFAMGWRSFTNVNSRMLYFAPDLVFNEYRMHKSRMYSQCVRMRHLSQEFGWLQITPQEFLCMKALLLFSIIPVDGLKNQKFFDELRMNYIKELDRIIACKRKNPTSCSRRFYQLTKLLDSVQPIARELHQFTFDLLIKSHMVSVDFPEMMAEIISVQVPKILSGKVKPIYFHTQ

p300, purified recombinant (baculovirus), sequence (Q09472 whole entry): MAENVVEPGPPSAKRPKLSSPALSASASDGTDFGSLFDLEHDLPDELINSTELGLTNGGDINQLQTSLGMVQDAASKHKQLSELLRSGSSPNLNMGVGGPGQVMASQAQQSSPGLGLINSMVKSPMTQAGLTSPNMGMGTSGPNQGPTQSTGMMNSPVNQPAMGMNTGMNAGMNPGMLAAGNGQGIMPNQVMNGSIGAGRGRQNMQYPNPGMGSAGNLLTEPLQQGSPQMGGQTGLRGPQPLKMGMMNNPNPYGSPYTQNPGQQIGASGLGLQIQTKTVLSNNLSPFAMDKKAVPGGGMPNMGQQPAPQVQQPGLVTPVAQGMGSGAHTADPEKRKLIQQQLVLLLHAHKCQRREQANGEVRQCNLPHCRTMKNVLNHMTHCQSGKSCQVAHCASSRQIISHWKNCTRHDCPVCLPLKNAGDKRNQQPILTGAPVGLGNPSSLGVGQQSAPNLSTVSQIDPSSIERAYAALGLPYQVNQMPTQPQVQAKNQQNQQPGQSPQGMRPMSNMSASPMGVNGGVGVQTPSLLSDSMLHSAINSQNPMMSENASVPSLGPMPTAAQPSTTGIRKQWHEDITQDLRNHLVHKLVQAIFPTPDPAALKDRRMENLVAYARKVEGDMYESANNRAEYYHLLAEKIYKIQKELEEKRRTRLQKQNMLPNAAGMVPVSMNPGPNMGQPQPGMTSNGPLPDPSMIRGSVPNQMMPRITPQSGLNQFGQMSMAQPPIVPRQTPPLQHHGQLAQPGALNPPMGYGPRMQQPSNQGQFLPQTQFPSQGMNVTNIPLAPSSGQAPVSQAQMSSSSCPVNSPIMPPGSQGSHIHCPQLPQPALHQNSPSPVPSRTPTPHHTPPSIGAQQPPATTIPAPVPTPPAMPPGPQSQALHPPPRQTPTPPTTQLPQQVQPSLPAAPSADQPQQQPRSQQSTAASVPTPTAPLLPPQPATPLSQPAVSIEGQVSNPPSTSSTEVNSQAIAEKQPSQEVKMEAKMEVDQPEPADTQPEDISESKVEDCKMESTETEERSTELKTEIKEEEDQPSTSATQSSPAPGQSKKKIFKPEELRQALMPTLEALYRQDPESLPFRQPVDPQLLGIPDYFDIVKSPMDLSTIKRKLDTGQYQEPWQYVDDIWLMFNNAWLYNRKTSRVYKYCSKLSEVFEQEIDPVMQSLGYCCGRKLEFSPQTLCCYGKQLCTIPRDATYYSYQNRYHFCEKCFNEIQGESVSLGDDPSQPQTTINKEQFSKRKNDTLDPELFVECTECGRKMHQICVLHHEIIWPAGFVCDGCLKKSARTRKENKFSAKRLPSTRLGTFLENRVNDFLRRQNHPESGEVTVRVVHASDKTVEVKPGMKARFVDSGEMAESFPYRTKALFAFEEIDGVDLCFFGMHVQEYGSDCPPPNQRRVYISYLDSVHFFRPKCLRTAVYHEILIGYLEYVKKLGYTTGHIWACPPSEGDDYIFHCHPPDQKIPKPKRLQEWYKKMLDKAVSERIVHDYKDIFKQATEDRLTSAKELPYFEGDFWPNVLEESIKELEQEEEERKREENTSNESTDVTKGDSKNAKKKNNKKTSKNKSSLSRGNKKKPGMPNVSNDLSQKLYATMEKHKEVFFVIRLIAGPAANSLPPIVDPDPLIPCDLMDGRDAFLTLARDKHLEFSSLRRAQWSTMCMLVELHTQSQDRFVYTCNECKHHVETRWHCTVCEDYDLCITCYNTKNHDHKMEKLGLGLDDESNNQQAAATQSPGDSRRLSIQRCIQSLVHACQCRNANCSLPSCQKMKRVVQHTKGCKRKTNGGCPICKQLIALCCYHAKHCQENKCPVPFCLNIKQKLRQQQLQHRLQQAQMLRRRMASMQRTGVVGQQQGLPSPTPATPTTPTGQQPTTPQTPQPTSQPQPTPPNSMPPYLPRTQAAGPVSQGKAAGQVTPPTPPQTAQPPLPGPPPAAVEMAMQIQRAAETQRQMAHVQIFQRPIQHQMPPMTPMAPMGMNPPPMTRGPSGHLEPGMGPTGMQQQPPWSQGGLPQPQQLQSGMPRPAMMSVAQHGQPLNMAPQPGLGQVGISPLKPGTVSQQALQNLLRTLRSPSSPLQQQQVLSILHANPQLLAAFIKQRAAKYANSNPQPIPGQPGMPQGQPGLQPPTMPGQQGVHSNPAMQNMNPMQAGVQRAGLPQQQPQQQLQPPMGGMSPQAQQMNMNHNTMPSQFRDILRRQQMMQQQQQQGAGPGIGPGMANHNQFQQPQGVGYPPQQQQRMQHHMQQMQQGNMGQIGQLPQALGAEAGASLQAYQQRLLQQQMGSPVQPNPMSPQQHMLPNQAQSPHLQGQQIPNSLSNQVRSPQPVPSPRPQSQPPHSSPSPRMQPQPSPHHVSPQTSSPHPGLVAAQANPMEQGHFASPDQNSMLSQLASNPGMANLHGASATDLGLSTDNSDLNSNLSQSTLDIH

B1: Flag-tagged AR (1-669aa), deletion mutant lacking the LBD (domain or fragment, human, UniProt P10275 1-669, looked up)
chain: MEVQLGLGRVYPRPPSKTYRGAFQNLFQSVREVIQNPGPRHPEAASAAPPGASLLLLQQQQQQQQQQQQQQQQQQQQQQQETSPRQQQQQQGEDGSPQAHRRGPTGYLVLDEEQQPSQPQSALECHPERGCVPEPGAAVAASKGLPQQLPAPPDEDDSAAPSTLSLLGPTFPGLSSCSADLKDILSEASTMQLLQQQQQEAVSEGSSSGRAREASGAPTSSKDNYLGGTSTISDNAKELCKAVSVSMGLGVEALEHLSPGEQLRGDCMYAPLLGVPPAVRPTPCAPLAECKGSLLDDSAGKSTEDTAEYSPFKGGYTKGLEGESLGCSGSAAAGSSGTLELPSTLSLYKSGALDEAAAYQSRDYYNFPLALAGPPPPPPPPHPHARIKLENPLDYGSAWAAAAAQCRYGDLASLHGAGAAGPGSGSPSAAASSSWHTLFTAEEGQLYGPCGGGGGGGGGGGGGGGGGGGGGGGEAGAVAPYGYTRPPQGLAGQESDFTAPDVWYPGGMVSRVPYPSPTCVKSEMGPWMDSYSGPYGDMRLETARDHVLPIDYYFPPQKTCLICGDEASGCHYGALTCGSCKVFFKRAAEGKQKYLCASRNDCTIDKFRRKNCPSCRLRKCYEAGMTLGARKLKKLGNLKLQEEGEASSTTSPTEETTQKLTVSHIEGYE
- binding result [1]: binds

B2: SRC-3, purified recombinant (baculovirus) (natural protein)
chain: not shown
- stoichiometry N [2]: 1
